Test results as given in the supplement of paper PMC7877785.
± gives the uncertainty stated by the source.

Assay: self-splicing fitness, log relative to wild type (ln ratio); higher = more splicing; Tetrahymena group I intron in knt gene, E. coli kanamycin selection, DiMSum; sequences stand for … in CUCUCU…GGAGGGAAAAGUUAUCAGGCAUGCACCUGGUAGCUAGUCUUUAAACCAAUAGAUUGCAUCGGUUUAAAAGGCAAGACCGUCAAAUUGCGGGAAAGGGGUCAACAGCCGUUCAGUACCAAGUCUCAGGGGAAACUUUGAGAUGGCCUUGCAAAGGGUAUGGUAAUAAGCUGACGGACAUGGUCCUAACCACGCAGCCAAGUCCUAAGUCAACAGAUCUUCUGUUGAUAUGGAUGCAGUUCACAGACUAAAUGUCGGUCGGGGAAGAUGUAUUCUUCUCAUAAGAUAUAGUCGGACCUCUCCUUAAUGGGAGCUAGCGGAUGAAGUGAUGCAACACUGGAGCCGCUGGGAACUAAUUUGUAUGCGAAAGUAUAUUGAUUAGUUUUGGAGUACUCGUGGUCG
In short: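 DiMSum derived fitness as the error-weighted combination of fold changes across replicates, kanamycin versus no kanamycin, normalised to wild type. E. coli BL21(DE3) held the library, which randomised all eight P1ex-region intron nucleotides within the knt kanamycin-resistance gene on pET-22b(+). Six replicate transformations grew overnight at 37°C or 30°C on LB agar with or without 25 μg/mL kanamycin, also containing 100 μg/mL carbenicillin, 50 μM IPTG and 0.2% rhamnose, and pooled colonies were amplicon-sequenced on an Illumina HiSeq 2500.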

Sequence | self-splicing fitness (ln) (30 °C) | self-splicing fitness (ln) (37 °C)
GGACAGCAAUAUUACGUACA | -1.06 ± 0.096 | 0.0922 ± 0.12
GGACAGCAAUAUUACGUCAU | -1.17 ± 0.095 | -0.489 ± 0.1
GGACAGCAAUAUUACGUCUG | -1.1 ± 0.057 | -0.31 ± 0.072
GGACAGCAAUAUUACGUGGA | -1.08 ± 0.076 | -1.29 ± 0.075
GGACAGCAAUAUUACGUGGC | -3.02 ± 0.26 | -0.384 ± 0.16
GGACAGCAAUAUUACGUGUC | -3.52 ± 0.28 | -2.68 ± 0.23
GGACAGCAAUAUUACGUUAA | -0.204 ± 0.07 | 0.00356 ± 0.08
GGAGAGCAAUAUUACGAAAA |  | -0.772 ± 0.31
GGAGAGCAAUAUUACGAGAU | -2.5 ± 0.36 | -2.14 ± 0.34
GGAGAGCAAUAUUACGCACG |  | -0.798 ± 0.47
GGAGAGCAAUAUUACGCGAG | -2.31 ± 0.48 | 
GGAGAGCAAUAUUACGCGAU | -2.76 ± 0.28 | -1.64 ± 0.37
GGAGAGCAAUAUUACGCGUU | -2.46 ± 0.28 | -1.82 ± 0.32
GGAGAGCAAUAUUACGGACG |  | -1.27 ± 0.31
GGAGAGCAAUAUUACGGCAC | -1.39 ± 0.37 | 
GGAGAGCAAUAUUACGGGAG | -4.1 ± 0.21 | -2.37 ± 0.23
GGAGAGCAAUAUUACGGUGU | -3.55 ± 0.28 | -2.38 ± 0.18
GGAGAGCAAUAUUACGUACG | -2.56 ± 0.43 | 
GGAGAGCAAUAUUACGUCAG | -3.34 ± 0.22 | -1.75 ± 0.21
GGAGAGCAAUAUUACGUCUU | -4.08 ± 0.28 | -3.23 ± 0.38

Sequence | self-splicing fitness (ln) (30 °C) | self-splicing fitness (ln) (37 °C)
GGAGAGCAAUAUUACGUUCG | -1.27 ± 0.19 | -0.35 ± 0.23
GGAGAGCAAUAUUACGUUGG | -4.09 ± 0.47 | -2.64 ± 0.36
GGAUAGCAAUAUUACGAAGA | -2.93 ± 0.34 | -1.82 ± 0.31
GGAUAGCAAUAUUACGAAGG | -2.12 ± 0.24 | -2.02 ± 0.26
GGAUAGCAAUAUUACGACAC | -0.106 ± 0.11 | 0.407 ± 0.14
GGAUAGCAAUAUUACGAGCU | -0.723 ± 0.19 | -0.744 ± 0.14
GGAUAGCAAUAUUACGAUCA | 0.409 ± 0.12 | 0.227 ± 0.12
GGAUAGCAAUAUUACGCAGA | -2.53 ± 0.25 | -1.58 ± 0.21
GGAUAGCAAUAUUACGCCCG | -1.49 ± 0.24 | -0.949 ± 0.27
GGAUAGCAAUAUUACGCCUU | -0.526 ± 0.11 | 0.31 ± 0.1
GGAUAGCAAUAUUACGCGAA | -1.69 ± 0.29 | -1.41 ± 0.42
GGAUAGCAAUAUUACGCGAC | -3.69 ± 0.36 | -1.92 ± 0.38
GGAUAGCAAUAUUACGCUAU |  | -2.05 ± 0.31
GGAUAGCAAUAUUACGCUGU | -1.65 ± 0.25 | -2.68 ± 0.38
GGAUAGCAAUAUUACGGAUC | -0.869 ± 0.084 | -0.269 ± 0.11
GGAUAGCAAUAUUACGGCGC | 0.356 ± 0.34 | 0.121 ± 0.33
GGAUAGCAAUAUUACGGCUC | -0.0157 ± 0.31 | -1.59 ± 0.35
GGAUAGCAAUAUUACGGCUU | -0.686 ± 0.095 | -0.309 ± 0.11
GGAUAGCAAUAUUACGGGCG | -1.69 ± 0.13 | -0.955 ± 0.094
GGAUAGCAAUAUUACGGUCG | -0.0227 ± 0.077 | 0.199 ± 0.094
